This data set addresses T1, Rv1019 (TetR family regulator) (UniProt P96381 1-197).
T1 sequence: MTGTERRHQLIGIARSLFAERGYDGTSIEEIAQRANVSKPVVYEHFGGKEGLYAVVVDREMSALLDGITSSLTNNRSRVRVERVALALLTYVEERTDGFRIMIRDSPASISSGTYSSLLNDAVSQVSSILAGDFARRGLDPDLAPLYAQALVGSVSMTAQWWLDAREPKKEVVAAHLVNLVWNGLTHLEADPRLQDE
Briefly: EMSA. In general terms: In EMSA bound probe runs differently from free probe, usually more slowly.

B1: MSMEG_1885 palindrome (MS_1886 PAL oligos) (dsDNA)
DNA 1: TAAGTTACGGTACCGTAGGTTG
DNA 2: CAACCTACGGTACCGTAACTTA
For B1, the binding result is listed as “binds”.
